The source of these data is US20220098305A1 (Hoffmann-La Roche, published 2022).

T1: human ICOS (human, UniProt Q9Y6W8 21-199)
T1 sequence: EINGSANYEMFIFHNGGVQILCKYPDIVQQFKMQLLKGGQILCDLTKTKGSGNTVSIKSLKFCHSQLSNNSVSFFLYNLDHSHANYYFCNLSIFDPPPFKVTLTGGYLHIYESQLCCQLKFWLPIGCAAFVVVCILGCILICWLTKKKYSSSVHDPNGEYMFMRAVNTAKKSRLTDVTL

B1: Molecule 14 (muIgG of 009) (antibody, V domains shown)
VH: EVRLDETGGGVVQPGRPMELSCVASGFTFSDYWMNWVRQSPEKGLEWVAQIRNKPYNYETYYSDSVKGRFTISRDDSKSRVYLQMNNLRAEDMGIYYCTWPRLRSSDWHFDVWGAGTTVTVSS
VL: AIQMTQSPSSLSASLGGEVTITCKASQDINKNIAWYQHKPGRGPRLLIWYTSTLQTGIPSRFSGSGSGRDYSFTISNLEPEDFATYYCLQFDNLYTFGSGTKLEIR
notes: Mouse IgG purified from hybridoma; also called ICOS (009); clone 009
B2: Molecule 8 (rbIgG of 1167) (antibody, V domains shown)
VH: EVRLLESGGGLVQPGGSLRLSCAASGFTFNTYAVHWVRQAPGKGLEWVSGIGGSGVRTYYADSVKGRLTISRDNSKNTLYLQMNSLRAEDTAIYFCAKDIYVADFTGYAFDIWGQGTMVTVSS
VL: DIQMTQSPSSVSASVGDRVTITCRASQGINNFLAWYQQKPGKAPKLLIYDASSLQSGVPSRFAGSGSGTDFTLTISSLQPEDFATYYCQQYNFYPLTFGGGTMVEIKR
notes: Rabbit IgG format, from transgenic rabbit; also called ICOS (1167); clone 1167
B3: Molecule 18 (rbIgG of 1138) (antibody, V domains shown)
VH: QSLEESGGDLVKPGASLTLTCTASGFDLSSYYYMCWVRQAPGKGLEWIACIYADIYGGTTHYASWAKGRFTISKTSSTTVTLQMTSLTAADTATYFCAREDGSRYGGSGYYNLWGPGTLVTVSS
VL: ALVMTQTPSSVSAAVGGTVTINCQASQNIYSNLAWYQQKPGQPPKLLIYAASYLTSGVSSRFKGSGAGTQFTLTISGVECADAATYYCQQGHTTDNIDNAFGGGTEVVVKG
notes: Rabbit IgG format; also called ICOS (1138); clone 1138
B4: Molecule 20 (rbIgG of 1143) (antibody, V domains shown)
VH: QSLEESGGDLVKPGASLTLTCKASGFDFSSAYDMCWVRQAPGKGLEWIGCVYYGDGITYYATWAKGRFTISKTSSTTVPLQMTSLTAADTATYFCARGAFLGSSYYLSLWGQGTLVTVSS
VL: AIDMTQTPASVEAAVGGTVTINCQASENIYNWLAWYQQKPGQPPKLLIYDASKLASGVPSRFSASGSGTQFTLTISAVECADAATYYCQQAYTYGNIDNAFGGGTEVVVSG
notes: Rabbit IgG format; also called ICOS (1143); clone 1143

For one experiment, the target named is T1, human ICOS. In words: cell-based or functional assay.
Take B1: the “EC50 of activation of Jurkat-NFAT reporter cell line (luminescence)” value (“EC50 of activation … (luminescence)” for short) amounted to 80 pM.
On to B2, for which the “EC50 of activation … (luminescence)” value was 130 pM.
Take B3: the “EC50 of activation … (luminescence)” value was 90 pM.
In the case of B4, the “EC50 of activation … (luminescence)” value came out at 20 pM.

In a further experiment the target is T1, human ICOS. In words: flow cytometry, SR cells. The method, then: (§1) Briefly, suspension cells were harvested, counted, checked for viability and re-suspended at 1 million cells per ml in FACS buffer (PBS with 0.1% BSA). […] The staining was fixed for 20 min at 4° C. in the dark, using 75 μl of 1% PFA in FACS buffer per well.
(§2) In addition, binding of the above molecules to human SR cells (ATCC® CRL-2262) was performed as described above apart from the following modifications: SR cells were re-suspended at 2 million cells per ml in FACS buffer (BD).
(§3) Fluorescence was analyzed by FACS using a FACS Fortessa (Software FACS Diva). Binding curves and EC50 values were obtained using GraphPadPrism 7.
Background: A flow cytometer gives signals particle by particle.
As usually defined, the EC50 is the concentration giving half of the maximal effect. In turn, B1 showed a 50% effective concentration (EC50) of 1.4 pM.
With B2, the 50% effective concentration (EC50) worked out at 1.13 pM.
B3 displayed a concentration giving a half-maximal response (EC50) of 2.16 pM.
B4 had a 50% effective concentration (EC50) of 0.4 pM.

The target of the next experiment is T1, human ICOS. The experiment in a line: flow cytometry, CHO cells expressing human ICOS. The method, then:
as §1, §3
For B1, the concentration giving a half-maximal response (EC50) was determined as 2.97 pM.
The same measure, in the same setting: with B2 the figure was 0.69 pM.
The molecule B3 yielded an EC50 of 1.92 pM.
On to B4, for which the EC50 is 0.3 pM.

Another experiment has as its target T1, human ICOS. In words: flow cytometry, ICOS+ CHO cells, 120 nM anti-ICOS IgG, no ICOSL. As for the experimental part: (§4) Briefly, cells were harvested, counted, checked for viability and re-suspended at 1 million cells per ml in FACS buffer (PBS with 0.1% BSA). […] Cells were washed again twice with cold PBS 0.1% BSA and then re-incubated and fixed for 20 min at 4° C. in the dark, using 75 μl of 1% PFA in FACS buffer per well. Fluorescence was analyzed by FACS using a FACS Fortessa (Software FACS Diva. Data was analyzed using GraphPadPrism 7.
Take B1: the “MFI (A488), IgG only” value was found to be 7190 MFI.
On the same count and under the same terms, the figure for B2 is 7800 MFI.
B3: the “MFI (A488), IgG only” value was found to be 6320 MFI.
Regarding B4, the “MFI (A488), IgG only” value is 6320 MFI.

A further experiment deals with T1, human ICOS. The experiment in a line: flow cytometry, MFI(ICOSL+anti-ICOS)/MFI(anti-ICOS only)*100 at 120 nM; competitor ICOSL. As for the experimental part:
as §4
In the case of B1, the “Relative Binding (%)” value came to 97.3%.
The same measure, in the same setting: with B2 the figure was 98.2%; with B3, 98.2%; with B4, 100%.

In another experiment the target is T2, recombinant monomeric human ICOS Fc(kih) Avi tag (human, UniProt P0DOX5 223-449 = IgG part, biotin on the Avi tag in the ligand-blocking and the SPR competition assays).
T2 construct: also called recombinant human ICOS; biotinylated human ICOS Fc(kih)
In words: SPR competition on human ICOS Fc(kih); second injection 100 nM; competitor (row): Molecule 8. The method, then: (§5) Immobilization levels up to 600 resonance units (RU) were used. […] Bulk refractive index differences were corrected for by subtracting the response obtained on reference flow cell.
(§6) The SPR experiments were performed on a Biacore T200 at 25° C. with HBS-EP as running buffer (0.01 M HEPES pH 7.4, 0.15 M NaCl, 3 mM EDTA, 0.005% Surfactant P20, Biacore, Freiburg/Germany).
B1: the “binding of the second injection (0 = no binding; 1 = binding)” value (shortened to “binding … (0 = no binding; 1 = binding)”) amounted to 0.
As for B3, the “binding … (0 = no binding; 1 = binding)” value was determined as 1.
On to B4, for which the “binding … (0 = no binding; 1 = binding)” value was 0.

A further experiment has as its target T1, human ICOS. In words: flow cytometry on SR cells expressing human ICOS, PE-labelled secondary antibody, MFI. The method, then: as §1, §2, §3
As a reminder, the EC50 (read off the curve) is the concentration at which the effect is half-maximal. As to B1, the concentration giving a half-maximal response (EC50 (read off the curve)) is approximately 1000 pM.
For B2, the half-maximal effective concentration (EC50 (read off the curve)) is approximately 1000 pM.
As for B3, the concentration for a half-maximal effect (EC50 (read off the curve)) was approximately 2000 pM.
Still for that read-out and setting: with B4 the figure was approximately 400 pM.

For a further experiment, the target named is T2, recombinant monomeric human ICOS …. The experiment in a line: SPR competition on human ICOS Fc(kih); second injection 100 nM; competitor (row): Molecule 14. As for the experimental part: as §5, §6
Turning to B2, the “binding … (0 = no binding; 1 = binding)” value turned out to be 0.
Regarding B3, the “binding … (0 = no binding; 1 = binding)” value was 1.
With B4, the “binding … (0 = no binding; 1 = binding)” value was 0.

For a further experiment the target is unchanged. The experiment in a line: SPR competition on human ICOS Fc(kih); second injection 100 nM; competitor (row): Molecule 18. The method, then:
as §5, §6
In the case of B1, the “binding … (0 = no binding; 1 = binding)” value is 1.
Same read-out and setting: the figure for B2 is 1; for B4 it is 1.

Another experiment shares this target. The experiment in a line: SPR competition on human ICOS Fc(kih); second injection 100 nM; competitor (row): Molecule 20. As for the experimental part:
as §5, §6
Consider B1, for which the “binding … (0 = no binding; 1 = binding)” value came out at 0.
Consider B2, for which the “binding … (0 = no binding; 1 = binding)” value was 0.
For the molecule B3, the “binding … (0 = no binding; 1 = binding)” value came to 1.

The target of another experiment is T1, human ICOS. In words: flow cytometry, ICOS+ CHO cells, 120 nM anti-ICOS IgG pre-bound, then ICOSL (competitor) 120 nM. As for the experimental part: as §4
On to B1, for which the “MFI (A488), IgG + ICOSL” value turned out to be 7000 MFI.
B2: the “MFI (A488), IgG + ICOSL” value was 7660 MFI.
For the molecule B3, the “MFI (A488), IgG + ICOSL” value stood at 6210 MFI.
Turning to B4, the “MFI (A488), IgG + ICOSL” value amounted to 6340 MFI.

The target in a further experiment is T2, recombinant monomeric human ICOS …. In words: SPR (Biacore T200, 25 C), antibody captured on anti-mouse IgG, ICOS Fc(kih) 7.5-600 nM as analyte, 1:1 Langmuir fit. The method, then:
(§7) All SPR experiments were performed on a Biacore T200 at 25° C. with HBS-EP as running buffer (0.01 M HEPES pH 7.4, 0.15 M NaCl, 3 mM EDTA, 0.005% Surfactant P20, Biacore, Freiburg/Germany).
Setup 2: Anti-mouse IgG antibody (GE Healthcare, Chicago/US) was directly coupled on a CM5 chip at pH 5.0 using the standard amine coupling kit (Biacore, Freiburg/Germany). The immobilization level was approximately 5000 RU. […] The dissociation was monitored for 720 seconds. Bulk refractive index differences were corrected for by subtracting the response obtained on reference flow cell.
For orientation: Surface plasmon resonance follows binding to a sensor surface in real time, without labels.
As a reminder, the Kd is the equilibrium constant for the complex coming apart. In general, koff refers to a measure of how fast the partners let go of each other. In general, kon refers to a measure of how fast the partners come together. For B1, the Kd came to 2000 pM, the koff amounted to 0.00014 s⁻¹, the on-rate constant (kon) is 61000 M⁻¹ s⁻¹ and the t1/2 came to 1.36 h.

The next experiment has the same target. The experiment in a line: SPR (Biacore T200, 25 C), antibody captured on anti-rabbit Fc, ICOS Fc(kih) 7.5-600 nM as analyte, 1:1 Langmuir fit. As for the experimental part: as §7
Setup 1: Anti-rabbit Fc antibody (Jackson ImmunoResearch, Cambridgeshire/UK) was directly coupled on a CM5 chip at pH 4.5 using the standard amine coupling kit (Biacore, Freiburg/Germany). The immobilization level was approximately 9000 RU. […] The dissociation was monitored for 720 seconds. Bulk refractive index differences were corrected for by subtracting the response obtained on reference flow cell.
Regarding B2, the Kd was determined as 76000 pM, the off-rate constant (koff) came to 0.0061 s⁻¹, the on-rate (kon) came out at 81000 M⁻¹ s⁻¹ and the t1/2 turned out to be 0.0317 h.
Consider B3, for which the Kd is 700 pM, the koff came to 0.00026 s⁻¹, the kon amounted to 400000 M⁻¹ s⁻¹ and the t1/2 was 0.728 h.
Turning to B4, the Kd was determined as 100 pM, the koff turned out to be 2.3e-05 s⁻¹, the on-rate (kon) amounted to 170000 M⁻¹ s⁻¹ and the t1/2 was determined as 8.3 h.

A further experiment addresses T1, human ICOS. In words: flow cytometry on CHO cells stably expressing human ICOS, PE-labelled secondary antibody, median fluorescence intensity (MFI). The method, then: as §1, §3
As for B1, the “EC50 (read off the curve)” value was approximately 3000 pM.
In the case of B2, the “EC50 (read off the curve)” value was approximately 700 pM.
As for B3, the “EC50 (read off the curve)” value was approximately 2000 pM.
Turning to B4, the “EC50 (read off the curve)” value is approximately 300 pM.
